Legend:
HER2 on BT474 cells [1] = target: T1, HER2 on BT474 cells (human, UniProt P04626 23-1255); experiment: cell-based or functional assay
human HER2 [2] = target: T2, human HER2 (human, UniProt P04626 23-652, limits assumed); experiment: SPR, global fit over several concentrations; Protein #23-His
T2 construct: This is HER2 as used in the surface plasmon resonance experiments; also called ErbB2; Human Epidermal Growth Factor Receptor 2
Procedure: (§1) Its affinity to HER2 was assessed by surface plasmon resonance as described in WO2014/083208.

human HER2 [3] = target: T2, human HER2; experiment: SPR
[4] = target: cynomolgus monkey serum albumin (cynomolgus monkey, UniProt A2V9Z4 25-608); experiment: ProteOn SPR, PBS pH 7.4
Sequence of cynomolgus monkey serum albumin (A2V9Z4 25-608 limits assumed): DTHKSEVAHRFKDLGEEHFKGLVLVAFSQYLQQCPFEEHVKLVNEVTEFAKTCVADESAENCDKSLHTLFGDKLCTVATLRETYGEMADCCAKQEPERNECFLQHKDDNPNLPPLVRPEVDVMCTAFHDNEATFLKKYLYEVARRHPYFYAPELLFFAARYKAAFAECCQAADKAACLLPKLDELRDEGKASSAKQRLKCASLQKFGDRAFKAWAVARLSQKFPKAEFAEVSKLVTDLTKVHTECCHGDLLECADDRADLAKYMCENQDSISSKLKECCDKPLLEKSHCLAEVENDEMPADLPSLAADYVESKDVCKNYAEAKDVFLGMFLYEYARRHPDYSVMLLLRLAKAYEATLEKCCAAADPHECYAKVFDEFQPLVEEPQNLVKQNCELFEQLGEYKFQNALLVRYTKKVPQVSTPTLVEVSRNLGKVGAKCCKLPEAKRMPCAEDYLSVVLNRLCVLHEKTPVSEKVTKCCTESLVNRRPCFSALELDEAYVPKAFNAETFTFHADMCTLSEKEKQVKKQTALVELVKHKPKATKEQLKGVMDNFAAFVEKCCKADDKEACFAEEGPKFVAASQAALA

mouse serum albumin = mouse serum albumin (mouse, UniProt P07724 25-608); experiment: ProteOn SPR, PBS pH 7.4
Sequence of mouse serum albumin (P07724 25-608 limits assumed): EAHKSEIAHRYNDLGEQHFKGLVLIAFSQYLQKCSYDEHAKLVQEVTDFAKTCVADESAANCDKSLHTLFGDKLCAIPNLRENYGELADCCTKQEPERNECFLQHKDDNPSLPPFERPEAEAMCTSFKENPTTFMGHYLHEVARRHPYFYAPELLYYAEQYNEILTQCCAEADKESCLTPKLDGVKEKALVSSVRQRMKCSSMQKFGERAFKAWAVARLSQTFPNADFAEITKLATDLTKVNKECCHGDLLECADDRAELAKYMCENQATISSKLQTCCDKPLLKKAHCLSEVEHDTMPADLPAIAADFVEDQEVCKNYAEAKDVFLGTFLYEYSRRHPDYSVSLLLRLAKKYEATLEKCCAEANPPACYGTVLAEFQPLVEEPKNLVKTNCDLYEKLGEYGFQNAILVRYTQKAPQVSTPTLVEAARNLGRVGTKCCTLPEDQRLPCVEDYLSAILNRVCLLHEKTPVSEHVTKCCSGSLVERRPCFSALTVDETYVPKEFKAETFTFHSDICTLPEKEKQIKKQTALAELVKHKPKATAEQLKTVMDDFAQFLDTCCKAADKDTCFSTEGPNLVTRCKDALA

human serum albumin [5] = target: T3, human serum albumin (human, UniProt P02768 25-609); experiment: ProteOn SPR, PBS pH 7.4
T3 construct: also called HSA

HER2 on BT474 cells [6] = target: T1, HER2 on BT474 cells; experiment: cell-based or functional assay; remark: listed apart in the source
human serum albumin [7] = target: T3, human serum albumin; experiment: SPR; Protein #21 at 100 nM
[8] = target: T4, extracellular domain of EGFR (UniProt P00533 25-645); experiment: surface plasmon resonance
T4 construct: extracellular domain; also called ErbB1; HER1

[9] = target: T5, extracellular domain of HER3 (UniProt P21860 20-643); experiment: surface plasmon resonance
T5 construct: extracellular domain; also called ErbB3

human HER2 [10] = target: T2, human HER2; experiment: SPR, global fit over several concentrations; Protein #21-His
Procedure: as §1

B1: Protein #23-His (designed binder)
chain: MRGSHHHHHHGSDLGKKLLEAARAGQDDEVRELLKAGADVNAKDYFSHTPLHLAARNGHLKIVEVLLKAGADVNAKDFAGKTPLHLAANEGHLEIVEVLLKAGADVNAQDIFGKTPADIAADAGHEDIAEVLQKAAGSPTPTPTTPTPTPTTPTPTPTGSDLGVKLLWAAARGQDDEVRELLKAGADVNAKDFQGITPLHIAATNGHLEIVEVLLKAGADVNAKDITGETPLHHAADSGHLEIVEVLLKAGADVNAQDKAGVTPADLAAAWGHEDIAEVLQKAAGSPTPTPTTPTPTPTTPTPTPTGSDLGKKLLEAARAGQDDEVRELLKAGADVNAKDEYGLTPLYLATAHGHLEIVEVLLKAGADVNAVDAIGFTPLHLAAFIGHLEIAEVLLKAGADVNAQDKFGKTPADIAAGAGNEDIAEVLQKAAGSPTPTPTTPTPTPTTPTPTPTGSDLGKKLLEAARAGQDDEVRELLKAGADVNAKDYFSHTPLHLAARNGHLKIVEVLLKAGADVNAKDFAGKTPLHLAANEGHLEIVEVLLKAGADVNAQDIFGKTPADIAADAGHEDIAEVLQKAA
**Q.** What does the source list for B1?
**A.** IC50, inhibition of BT474 cell proliferation (BrdU) (HER2 on BT474 cells [1]): 2.4 nM; Kd (human HER2 [2]): 0.064 nM

B2: Protein #17-His (designed binder)
chain: MRGSHHHHHHGSDLGKKLLEAARAGQDDEVRELLKAGADVNAKDEYGLTPLYLATAHGHLEIVEVLLKAGADVNAVDAIGFTPLHLAAFIGHLEIAEVLLKAGADVNAQDKFGKTPADIAAGAGNEDIAEVLQKAA
**Q.** For B2, which Kd (human HER2 [3]) is on record?
**A.** Its Kd is 0.152 nM.

B3: Protein #14-His (designed binder)
chain: MRGSHHHHHHGSDLGKKLLEAARAGQDDEVRELLKAGADVNAKDYFSHTPLHLAARNGHLKIVEVLLKAGADVNAKDFAGKTPLHLAANEGHLEIVEVLLKAGADVNAQDIFGKTPADIAADAGHEDIAEVLQKAA
**Q.** For B3, which Kd [4] is on record?
**A.** The Kd was under 100 nM.

**Q.** And the Kd (mouse serum albumin)?
**A.** Its Kd is under 100 nM.

**Q.** And the Kd (human serum albumin [5])?
**A.** The Kd was under 100 nM.

B4: Protein #13-His (designed binder)
chain: MRGSHHHHHHGSDLGKKLLEAARAGQDDEVRELLKAGADVNAKDYFSHTPLHLAARNGHLKIVEVLLKAGADVNAKDFAGKTPLHLAANDGHLEIVEVLLKAGADVNAQDIFGKTPADIAADAGHEDIAEVLQKAA
**Q.** With B4 as the binder, how does the Kd [4] read?
**A.** The Kd was under 100 nM.

**Q.** What about the Kd (mouse serum albumin) of the same binder?
**A.** Its Kd is under 100 nM.

**Q.** What about the Kd (human serum albumin [5]) of the same binder?
**A.** Its Kd is under 100 nM.

B5: Protein #16-His (designed binder)
chain: MRGSHHHHHHGSDLGIKLLFAAAKGQDDEVRELLKAGADVNAKDFQGVTPLHIAAQSGHLEIVEVLLKAGADVNAKDVTGDTPLHLAAQHGHLEIVEVLLKAGADVNAQDERGWTPADLAADWGHEDIAEVLQKAA
**Q.** B5 was tested. Which Kd (human HER2 [3]) did it give?
**A.** The Kd was 0.009 nM.

B6: Protein #21 (designed binder)
chain: GSDLGKKLLEAARAGQDDEVRELLKAGADVNAKDYFSHTPLHLAARNGHLKIVEVLLKAGADVNAKDFAGKTPLHLAANEGHLEIVEVLLKAGADVNAQDIFGKTPADIAADAGHEDIAEVLQKAAGSPTPTPTTPTPTPTTPTPTPTGSDLGIKLLFAAAKGQDDEVRELLKAGADVNAKDFQGVTPLHIAAQSGHLEIVEVLLKAGADVNAKDVTGDTPLHLAAQHGHLEIVEVLLKAGADVNAQDERGWTPADLAADWGHEDIAEVLQKAAGSPTPTPTTPTPTPTTPTPTPTGSDLGKKLLEAARAGQDDEVRELLKAGADVNAKDEYGLTPLYLATAHGHLEIVEVLLKAGADVNAVDAIGFTPLHLAAFIGHLEIAEVLLKAGADVNAQDKFGKTPADIAAGAGNEDIAEVLQKAAGSPTPTPTTPTPTPTTPTPTPTGSDLGKKLLEAARAGQDDEVRELLKAGADVNAKDYFSHTPLHLAARNGHLKIVEVLLKAGADVNAKDFAGKTPLHLAANEGHLEIVEVLLKAGADVNAQDIFGKTPADIAADAGHEDIAEVLQKAA
notes: Untagged
**Q.** Which results are given for B6?
**A.** EC50, induction of apoptosis in BT474 cells (Caspase 3/7 activation) (HER2 on BT474 cells [1]): 2.4 nM; phosphorylation AKT S124, fold change to PBS (mass spectrometry) (HER2 on BT474 cells [6]): 0.99 fold change to PBS; phosphorylation AKT S129, fold change to PBS (mass spectrometry) (HER2 on BT474 cells [6]): 0.93 fold change to PBS; phosphorylation RAF S642, fold change to PBS (mass spectrometry) (HER2 on BT474 cells [6]): 0.81 fold change to PBS; phosphorylation RAF T631/T638/T640/T641/S642, fold change to PBS (mass spectrometry) (HER2 on BT474 cells [6]): 0.48 fold change to PBS; phosphorylation RPS6KB1/S6Kinase S441/T444/S447, fold change to PBS (mass spectrometry) (HER2 on BT474 cells [6]): 0.63 fold change to PBS; phosphorylation RPS6KB1/S6Kinase T444/S447, fold change to PBS (mass spectrometry) (HER2 on BT474 cells [6]): 0.92 fold change to PBS; phosphorylation mTOR S2448/S2454, fold change to PBS (mass spectrometry) (HER2 on BT474 cells [6]): 0.79 fold change to PBS; Kd (human serum albumin [7]): 21 nM; binding result [8]: no binding; binding result [9]: no binding

B7: Protein #21-His (designed binder)
chain: MRGSHHHHHHGSDLGKKLLEAARAGQDDEVRELLKAGADVNAKDYFSHTPLHLAARNGHLKIVEVLLKAGADVNAKDFAGKTPLHLAANEGHLEIVEVLLKAGADVNAQDIFGKTPADIAADAGHEDIAEVLQKAAGSPTPTPTTPTPTPTTPTPTPTGSDLGIKLLFAAAKGQDDEVRELLKAGADVNAKDFQGVTPLHIAAQSGHLEIVEVLLKAGADVNAKDVTGDTPLHLAAQHGHLEIVEVLLKAGADVNAQDERGWTPADLAADWGHEDIAEVLQKAAGSPTPTPTTPTPTPTTPTPTPTGSDLGKKLLEAARAGQDDEVRELLKAGADVNAKDEYGLTPLYLATAHGHLEIVEVLLKAGADVNAVDAIGFTPLHLAAFIGHLEIAEVLLKAGADVNAQDKFGKTPADIAAGAGNEDIAEVLQKAAGSPTPTPTTPTPTPTTPTPTPTGSDLGKKLLEAARAGQDDEVRELLKAGADVNAKDYFSHTPLHLAARNGHLKIVEVLLKAGADVNAKDFAGKTPLHLAANEGHLEIVEVLLKAGADVNAQDIFGKTPADIAADAGHEDIAEVLQKAA
notes: also called Protein #31-His
**Q.** B7 was tested. Which “IC50, inhibition of BT474 cell proliferation (BrdU)” value (HER2 on BT474 cells [1]) did it give?
**A.** The value was 1.5 nM.

**Q.** What about the Kd (human HER2 [10]) of the same binder?
**A.** Its Kd is 0.027 nM.

Source: patent US20180155402A1 (Molecular Partners, published 2018)
